Measurements published in PMC11348035 (Proceedings of the National Academy of Sciences of the …, 2024).

Columns and labels:
UAF1 = UAF1 (UniProt Q8TAF3); assay: FLAG co-immunoprecipitation, western blot; settings: reference: wild type; sites S306
[1] = target: UAF1 (USP1-associated factor 1), purified recombinant (UniProt Q8TAF3 1-677); assay: pull-down
UAF1 (USP1-associated factor 1), purified recombinant, sequence (Q8TAF3 whole entry): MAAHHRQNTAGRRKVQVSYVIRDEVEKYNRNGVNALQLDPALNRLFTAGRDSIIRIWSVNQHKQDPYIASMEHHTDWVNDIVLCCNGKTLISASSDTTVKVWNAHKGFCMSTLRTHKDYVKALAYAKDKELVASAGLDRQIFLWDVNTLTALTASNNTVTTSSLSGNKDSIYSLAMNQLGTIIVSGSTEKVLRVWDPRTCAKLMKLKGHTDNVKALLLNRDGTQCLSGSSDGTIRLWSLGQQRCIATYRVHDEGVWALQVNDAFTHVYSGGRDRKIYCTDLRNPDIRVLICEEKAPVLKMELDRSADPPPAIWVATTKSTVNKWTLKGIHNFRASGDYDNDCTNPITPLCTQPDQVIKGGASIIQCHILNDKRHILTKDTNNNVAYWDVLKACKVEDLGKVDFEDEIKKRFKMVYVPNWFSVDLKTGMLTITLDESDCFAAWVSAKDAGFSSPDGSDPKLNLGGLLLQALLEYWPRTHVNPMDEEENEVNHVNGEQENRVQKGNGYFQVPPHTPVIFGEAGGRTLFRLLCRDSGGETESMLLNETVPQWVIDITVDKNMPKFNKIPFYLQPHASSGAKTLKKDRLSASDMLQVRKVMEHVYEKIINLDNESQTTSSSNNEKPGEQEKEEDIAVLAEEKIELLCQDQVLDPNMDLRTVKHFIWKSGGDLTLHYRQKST

Q: ATAD5 (from UniProt Q96QE3) S306A was tested. Which “binding against the reference” value (UAF1) did it give?
A: weaker

B1: ATAD5 (1 to 500, S306E), the 'wild-type' ATAD5 (1 to 500) of the in vitro binding studies (domain or fragment, human, UniProt Q96QE3 1-500, looked up)
chain: MVGVLAMAAAAAPPPVKDCEIEPCKKRKKDDDTSTCKTITKYLSPLGKTRDRVFAPPKPSNILDYFRKTSPTNEKTQLGKECKIKSPESVPVDSNKDCTTPLEMFSNVEFKKKRKRVNLSHQLNNIKTENEAPIEISSDDSKEDYSLNNDFVESSTSVLRYKKQVEVLAENIQDTKSQPNTMTSLQNSKKVNPKQGTTKNDFKKLRKRKCRDVVDLSESLPLAEELNLLKKDGKDTKQMENTTSHANSRDNVTEAAQLNDSIITVSYEEFLKSHKENKVEEIPDSTMSICVPSETVDEIVKSGYIEESENSEISQQVRFKTVTVLAQVHPIPPKKTGKIPRIFLKQKQFEMENSLSDPENEQTVQKRKSNVVIQEEELELAVLEAGSSEAVKPKCTLEERQQFMKAFRQPASDALKNGVKKSSDKQKDLNEKCLYEVGRDDNSKKIMENSGIQMVSKNGNLQLHTDKGSFLKEKNKKLKKKNKKTLDTGAIPGKNREGNT
Q: Does B1 bind [1]?
A: binds
